Reference: article PMC6803640, “Oligomeric state, hydrodynamic properties and target recognition of human Calcium and Integrin Binding protein 2 (CIB2)” (Scientific Reports, 2019)
Where a SMILES comes first, the peptide text is derived from it.

Tests used:
[1] = target: T1, human CIB2 (Homo sapiens, UniProt O75838); test: Cross-linking (DSBU)/MALDI-TOF-MS of CIB2 with α7B peptides; format: binding
T1 construct: made in house
T1 sequence (O75838 1-187): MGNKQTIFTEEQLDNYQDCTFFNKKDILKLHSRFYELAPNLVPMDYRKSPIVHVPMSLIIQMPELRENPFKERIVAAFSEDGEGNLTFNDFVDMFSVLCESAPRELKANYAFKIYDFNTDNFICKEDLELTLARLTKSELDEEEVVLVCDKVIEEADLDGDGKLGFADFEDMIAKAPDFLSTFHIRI
Description: CIB2 samples were cross-linked with DSBU in the presence of peptide α7B_M or α7B_Scrb as described in ref.[14] Briefly, 10 µM CIB2 was diluted in 20 mM HEPES, pH 7.5, 1 mM DTT, 1 mM Mg^2+ and 2 mM Ca^2+ and incubated with increasing peptide concentrations (5 µM, 10 µM, and 20 µM) for 10 min at room temperature. Then, 50-fold molar excess of DSBU was added and the reactions were conducted for 20 min at room temperature. As control, CIB2 was treated with DSBU without peptide. Reactions were blocked by adding ammonium bicarbonate to a final concentration of 20 mM.
Cross-linked CIB2 samples were desalted via ZipTip C4 tips (Millipore) before MALDI-TOF-MS analysis (Ultraflex III MALDI-TOF/TOF mass spectrometer, Bruker Daltonik, Bremen) was conducted using sinapinic acid as matrix. For further details see Supplementary Methods. Baseline subtraction and spectra smoothing were performed. […]
Cross-linking reactions and Mass Spectrometry
Cross-linking reactions were performed with 10 µM CIB2 (in 20 mM HEPES pH 7.5, 150 mM KCl, 1 mM DTT, 1 mM Mg2+, 2 mM Ca2+) and increasing concentrations of peptides α7B_M and α7B_Scrb, ranging from 0.5:1 to 2:1 peptide:protein ratios. After incubating the samples for 10 minutes at room temperature, DSBU (freshly prepared solution, dissolved in neat DMSO) was added to the mixture at 50-fold molar excess compared to CIB2 concentration. As the final volume of the reaction mixture was 50 µL, 1 µL of 25 mM DSBU was added to each sample. After 20 minutes, the cross-linking reactions were quenched by adding ammonium bicarbonate to a final concentration of 20 mM. Samples were incubated for 10 minutes before SDS-PAGE analysis was performed (data not shown). Samples for MALDI-TOF-MS measurements were desalted by ZipTip C4 (Millipore) and desalted protein was eluted with 70% (v/v) acetonitrile / 1% (v/v) formic acid. Each sample was mixed with a saturated solution of sinapinic acid (in 50% (v/v) methanol / 0.1% (v/v) TFA) at 1:1 ratio and spotted onto the MALDI target. […]

[2] = system: CIB2; details: cited from earlier work
Source text: In a recent study[8] we investigated the capability of CIB2 to bind Ca^2+ and Mg^2+ thereby switching to a functionally distinct structural state. By integrating several biochemical and biophysical techniques we could establish that in the absence of any cation CIB2 forms a molten globule state that essentially lacks tertiary structure. […] This is quite unusual for Ca^2+-sensor pro ... || The second approach (direct peptide immobilization) led to very low signals and unreproducible results and was not pursued any further. […] In spite of such differences, which might ... || Interaction with α7B occurs in the region proximal to the membrane and not close to the C-terminus of the cytosolic domain of the integrin. The recognition between CIB2 and the α7B target is kinetically favored in the presence of physiological Mg^2+ and in the absence of Ca^2+ and it might induce binding of another CIB2 molecule. […] However, CIB2 per se binds a single peptide as a monomer, and the complex could then induce CIB2 dimerization, ...

[3] = Analytical size exclusion chromatography; format: physicochemical
Description: The molecular weight (MW) of the proteins was determined before and after DSBU-modification as previously described[7] in the same buffer (20 mM HEPES, pH 7.5, 1 mM DTT, 1 mM Mg^2+ and 2 mM Ca^2+). […] Standard calibration curve for MW estimation was the same used in our previous study.

[4] = reducing conditions, different cation-bound states; cited from earlier work
Source text: Moreover, DLS experiments performed with the samples collected immediately after elution from the SEC column measured a relatively high hydrodynamic diameter (d^Mg = 8.43 nm and d^Ca = 8.18 nm), which was also interpreted as an evidence of a dimeric protein[8]. […] According to a calibration curve obtained with globular proteins of known MW, these bands would correspond to an apparent MW (MW^SEC) of 35.9 kDa in the absence and of 36.7 kDa in the presence of the cross-linker, thus very similar to those obtained in our previo ...

[5] = system: CIB2; details: fused with GFP and tdTomato; cited from earlier work
Source text: Our previous work with untagged purified CIB2 also concluded that CIB2 is dimeric. We now provide new lines of evidence that allow us to reconsider some of the previous findings in the light of MS ...

CSCC[C@H](NC(=O)[C@H](CCCCN)NC(=O)[C@H](Cc1c[nH]c2ccccc12)NC(=O)[C@H](CC(C)C)NC(=O)[C@H](CC(C)C)NC(=O)[C@H](CC(C)C)NC(C)=O)C(=O)NCC(=O)N[C@@H](Cc1ccccc1)C(=O)N[C@@H](Cc1ccccc1)C(=O)N[C@@H](CCCCN)C(=O)N[C@@H](CCCNC(=N)N)C(=O)N[C@@H](C)C(=O)N[C@@H](CCCCN)C(=O)N[C@@H](Cc1c[nH]cn1)C(=O)N1CCC[C@H]1C(=O)N[C@@H](CCC(=O)O)C(N)=O [α7B_M] (Ac-LLLWKMGFFKRAKHPE-NH2)
1:2 CIB2/peptide complex ([1]; 10 µM CIB2, 5, 10, 20 µM peptide, 50-fold DSBU, 1 mM Mg^2+, 2 mM Ca^2+): A weak signal
CIB2/peptide complex formation, 1:1 ([1]; 10 µM CIB2, 5, 10, 20 µM peptide, 50-fold DSBU, 20 mM HEPES pH 7.5, 1 mM Mg^2+, 2 mM Ca^2+, room temperature): a 1:1 CIB2/peptide complex appears in the mass spectra
2:1 CIB2 and peptide complex ([1]; cross-linking experiments with DSBU, 1 mM Mg^2+, 2 mM Ca^2+): never observed
fluorescence titration of CIB2 ([2]; peptide intrinsic fluorescence): fluorescence variation upon titration with α7B_M was much higher

B1: CIB2: Recombinant human CIB2, Ca^2+ and Mg^2+-binding protein (protein)
chain: MGNKQTIFTEEQLDNYQDCTFFNKKDILKLHSRFYELAPNLVPMDYRKSPIVHVPMSLIIQMPELRENPFKERIVAAFSEDGEGNLTFNDFVDMFSVLCESAPRELKANYAFKIYDFNTDNFICKEDLELTLARLTKSELDEEEVVLVCDKVIEEADLDGDGKLGFADFEDMIAKAPDFLSTFHIRI
modifications: left off: His tag, end not stated, cleaved
apparent MW (MW^SEC) ([3]; absence of cross-linker, 1 mM Mg^2+, 2 mM Ca^2+): 35.9 kDa
MW^SEC ([3]; analytical SEC, 20 mM HEPES pH 7.4, 150 mM KCl, 1 mM DTT, 1 mM Mg^2+, 2 mM Ca^2+, CIB2 ∼70 µM (A2 band), Rec ∼80 µM, CaM ∼110 µM): 37.8 kDa
MW^SEC, A1 shoulder ([3]; lower intensity shoulder A1 at lower elution time, predicted): 81.3 kDa
apparent MW (MW^SEC) ([3]; presence of DSBU cross-linker, 1 mM Mg^2+, 2 mM Ca^2+): 36.7 kDa
apparent MW (MW^SEC), previous work [4]: 37–39 kDa
dimer formation [5]: found to form dimers
oligomeric state by MS and XL-MS ([1]; all tested conditions, MS and XL-MS): remained monomeric in all tested conditions
CIB2:target peptide stoichiometry ([2]; fluorescence): 2:1 stoichiometry
